biological target: T1, recombinant human or murine heat shock protein 70 (hsp70) (human or murine), P0DMV8; assay: binding inhibition assay as in Example 2, on hsp70
T1 sequence (P0DMV8 whole entry): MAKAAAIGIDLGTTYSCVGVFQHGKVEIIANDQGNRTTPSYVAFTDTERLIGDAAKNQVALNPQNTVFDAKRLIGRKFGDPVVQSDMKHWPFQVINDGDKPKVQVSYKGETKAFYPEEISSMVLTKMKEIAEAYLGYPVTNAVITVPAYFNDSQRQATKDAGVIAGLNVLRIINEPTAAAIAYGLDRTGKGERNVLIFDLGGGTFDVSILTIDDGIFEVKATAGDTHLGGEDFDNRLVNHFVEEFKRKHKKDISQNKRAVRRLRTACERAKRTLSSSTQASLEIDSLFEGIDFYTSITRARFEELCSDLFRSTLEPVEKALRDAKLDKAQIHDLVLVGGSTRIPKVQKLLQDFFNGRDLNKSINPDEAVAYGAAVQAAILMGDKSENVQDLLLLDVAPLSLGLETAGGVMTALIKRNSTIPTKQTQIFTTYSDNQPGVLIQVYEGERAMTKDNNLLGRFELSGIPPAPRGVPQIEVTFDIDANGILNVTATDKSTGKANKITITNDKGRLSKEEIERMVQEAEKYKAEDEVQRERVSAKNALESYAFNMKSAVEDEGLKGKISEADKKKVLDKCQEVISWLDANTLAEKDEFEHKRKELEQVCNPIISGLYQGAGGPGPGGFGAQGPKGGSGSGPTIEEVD

| Molecule | Kd [µM] |
| --- | --- |
| IMDQVPFSV (modifications not checked) [… (Gp100 209-217, T210M)] | 2570 |
| IMDQVPFSVGSGNLLRLTGW (modifications not checked) | 0.9 |
| YMDGTMSQV (modifications not checked) [… (Tyrosinase 368-376, 370D)] | 209 |
| YMDGTMSQVGSGNLLRLTGW (modifications not checked) | 1.8 |
| SLLMWITQVGSGNLLRLTGW (modifications not checked) | 2.2 |
| SVYDFFVWL (modifications not checked) [… (Trp-2: 180-188)] | 81 |
| SVYDFFVWLGSGNLLRLTGW (modifications not checked) | 2.9 |
| GLYDGMEHL (modifications not checked) [… (MAGE-10: 254-262)] | 48 |
| GLYDGMEHLGSGNLLRLTGW (modifications not checked) | 1.1 |
| YLEPGPVTV (modifications not checked) [… (GP100: 280-288 (288V))] | 71 |
| YLEPGPVTVGSGNLLRLTGW (modifications not checked) | 2 |
| KASEKIFYV (modifications not checked) [… (SSX-2: 41-49)] | 57 |
| KASEKIFYVGSGNLLRLTGW (modifications not checked) | 1.4 |

biological target: T1, recombinant human or murine heat shock …; assay: on hsp70

| Molecule | Kd [µM] |
| --- | --- |
| SIINFEKL (modifications not checked) [SIINFEKL (ovalbumin amino acids 257-264)] | 235 |
| ALKHRAYEL (modifications not checked) | 97 |
| ALKHRAYELGSGNLLRLTGW (modifications not checked) | 1.1 |
| ILKEPVHGVGSGNLLRLTGW (modifications not checked) | 1.2 |
| SLFNTVATL (modifications not checked) [… (HIV Gag/p17: 77-85 (79F))] | 35 |
| SLFNTVATLGSGNLLRLTGW (modifications not checked) | 1.9 |
| VLDVGDAYFSV (modifications not checked) [… (HIV Pol: 263-273)] | 110 |
| VLDVGDAYFSVGSGNLLRLTGW (modifications not checked) | 2 |
| VIYQYMDDL (modifications not checked) [… (HIV Pol: 334-342)] | 91 |
| VIYQYMDDLGSGNLLRLTGW (modifications not checked) | 1.7 |
| SLYNTVATLGSGNLLRLTGW (modifications not checked) | 1.8 |
| AIIRILQQL (modifications not checked) [… (HIV Vpr: 59-67)] | 93 |
| AIIRILQQLGSGNLLRLTGW (modifications not checked) [ALIRJ… (as printed; hybrid antigen of the Vpr: 59-67 epitope)] | 0.6 |
| AFHHVAREL (modifications not checked) | 84 |
| AFHHVARELGSGNLLRLTGW (modifications not checked) | 2.1 |
| NLLRLTGWGSGSIINFEKL (modifications not checked) | 1.6 |
| RGYVYQGL (modifications not checked) [RGYVYQGL (VSV nucleoprotein amino acids 52-59)] | 82 |

biological target: T1, recombinant human or murine heat shock …; assay: binding inhibition assay (Hill plot) against tritiated … on hsp70

| Molecule | Kd [µM] |
| --- | --- |
| SIINFEKLGSGRKLFFNLRW (modifications not checked) [SIINFEKLgsg…] | 7 |
| SIINFEKL (modifications not checked) [SIINFEKL (ovalbumin amino acids 257-264)] | 279 |
| HWDFAWPWGSGSIINFEKL (modifications not checked) [HWDFAWPWgsgSIINFEKL] | 4.3 |
| ALFDIESKV (modifications not checked) [… (Prostate Specific Membrane Antigen 771-779)] | 145 |
| ALFDIESKVGSGNLLRLTGW (modifications not checked) [PSMA P2 hybrid antigen with NLLRLTGW] | 1.3 |
| IMDQVPFSV (modifications not checked) [… (Gp100 209-217, T210M)] | 2560 |
| IMDQVPFSVGSGHWDFAWPW (modifications not checked) | 155 |
| IMDQVPFSVGSGNLLRLTGW (modifications not checked) | 3.1 |
| HWDFAWPW (modifications not checked) | 120 |
| YMDGTMSQV (modifications not checked) [… (Tyrosinase 368-376, 370D)] | 204 |
| YMDGTMSQVGSGHWDFAWPW (modifications not checked) | 24 |
| YMDGTMSQVGSGNLLRLTGW (modifications not checked) | 2.65 |
| HWDFAWPWGSGYMDGTMSQV (modifications not checked) [HWDFAWPWgsg…] | 29 |
| TLGIVCPI (modifications not checked) [TLGIVCPI (HPV Strain 16 E7 86-93)] | 187 |
| TLGIVCPIGSGHWDFAWPW (modifications not checked) [TLGIVCPIgsgHWDFAWPW] | 9.1 |
| TLGIVCPIGSGNLLRLTGW (modifications not checked) [TLGIVCPIgsgNLLRLTGW] | 5.2 |
| YMLDLQPETTGSGHWDFAWPW (modifications not checked) | 27 |
| NLLRLTGW (modifications not checked) | 1.85 |
| SIINFEKLGSGNLLRLTGW (modifications not checked) [SIINFEKLgsgNLLRLTGW] | 1.2 |
| FYQLALTW (modifications not checked) | 5.9 |
| RKLFFNLRW (modifications not checked) | 15 |
| SIINFEKLGSGHWDFAWPW (modifications not checked) [SIINFEKLgsgHWDFAWPW] | 40 |
| SIINFEKLGSGFYQLALTW (modifications not checked) [SIINFEKLgsgFYQLALTW] | 1.43 |

biological target: recombinant human or murine heat shock protein 70 (hsp70) (human or murine) (UniProt P0DMV8); assay: on hsp70
Sequence (P0DMV8 whole entry): as the sequence (P0DMV8 whole entry) above

| Molecule | Kd [µM] |
| --- | --- |
| […] (HIV Pol: 464-472) (peptide; other documents disagree on this pair) | 83 |

biological target: recombinant human or murine heat shock protein 70 (hsp70) (human or murine) (UniProt P0DMV8); assay: binding inhibition assay (Hill plot) against tritiated … on hsp70

| Molecule | Kd [µM] |
| --- | --- |
| […] (HPV Strain 16 E7 11-20) (peptide; other documents disagree on this pair) | 91 |

biological target: T1, recombinant human or murine heat shock …; assay: competition against a labeled reporter peptide on HSP70; Kd calculated from IC50 (Hill plot)

| Molecule | fold increase in affinity over … (SEQ ID NO:368) [fold] |
| --- | --- |
| SIINFEKLGSGNLLRLTGW (modifications not checked) [SIINFEKLgsgNLLRLTGW] | 15 |

biological target: T1, recombinant human or murine heat shock …; assay: binding inhibition assay (Hill plot) or Scatchard analysis of the reference on hsp70

| Molecule | Kd [µM] |
| --- | --- |
| ALFDIESKVGSGHWDFAWPW (modifications not checked) | 22 |
